From the DeepSol protein solubility set come the findings set out here.

A short description of this data set: soluble on expression in E. coli; label from the status in PepcDB or PDB records.
“GSHMFKCMEALGMESGEIHSDQITASSQYSTNWSAERSRLNYPENGWTPGEDSYREWIQVDLGLLRFVTAVGTQGAISKETKKKYYVKTYKIDVSSNGEDWITIKEGNKPVLFQGNTNPTDVVVAVFPKPLITRFVRIKPATWETGISMRFEVYGCKITDYPCSGMLGMVSGLISDSQITSSNQGDRNWMPENIRLVTSRSGWALPPAPHSYINEWLQIDLGEEKIVRGIIIQGGKHRENKVFMRKFKIGYSNNGSDWKMIMDDSKRKAKSFEGNNNYDTPELRTFPALSTRFIRIYPERATHGGLGLRMELLGCEVE”: the “soluble on expression in E. coli” value is recorded as “soluble”.
As for “MTDYDSLDDNAFRLMVREWIAANYPQRIRNPPRRLGREETREWYLLLSRQGWLCPGWPREYGGMGLSAGKQLIMMEEMEEYGCARLPDSGVTMLGPLLIRYGDEAQRARFLPRILSGEDIWCQGYSEPNAGSDLASLRTEARLENGEWVINGQKTWTTMGSEANWIFLLVRTERSAKAQHGISFLLVPMDSLGIEVRPILNLELHGEFCEVFFNDVRVPYDSLVGEINQGWSMAKALLGFERIFLGSPKQSTFALQRLERLARHLGLWHDPLFARRFAALSMDLDSHKALYERFAERLRRGESLGPEVSMLKIFQSELFQRISELGLEIAGEDSALLQPFAEDPELHPAGIFIQSRPTTIYGGSNEIQRNILAKSVLGLPG”, the entry is “not soluble”.
Then “AQEVLRRTPLYDFHLAHGGKMVAFAGWSLPVQYRDSHTDSHLHTRQHCSLFDVSHMLQTKILGSDRVKLMESLVVGDIAELRPNQGTLSLFTNEAGGILDDLIVTNTSEGHLYVVSNAGCWEKDLALMQDKVRELQNQGRDVGLEVLDNALLALQGPTAAQVLQAGVADDLRKLPFMTSAVMEVFGVSGCRVTRCGYTGEDGVEISVPVAGAVHLATAILKNPEVKLAGLAARDSLRLEAGLCLYGNDIDEHTTPVEGSLSWTLGKRRRAAMDFPGAKVIVPQLKGRVQRRRVGLMCEGAPMRAHSPILNMEGTKIGTVTSGCPSPSLKKNVAMGYVPCEYSRPGTMLLVEVRRKQQMAVVSKMPFVPTNYYTLK”, with “soluble”.
For the sequence “MGSDKIHHHHHHMEVAEGEFKPAFPIKPAQQLVFVHIPKCGGTSMHQFLANAKKVQPEPELSTILAGYCEPALHKHSKAAVIRDLVGPALWQTIFTFSVVRNPWDLMLSSYRWWLQKAGRFSSLRAQADEVADLGSFEGFLKSDFGGNRINECEGDILSWLSDENGQEIVDFVGRLEDIEQALQNVFERAGLAGYSEFPRLNSTVRGGYQDYYNAETKRLIQTRFQATIDRFEYQF”, the “soluble on expression in E. coli” value is recorded as “not soluble”.
Then “AIATSDITSGFAAVATALEHEGQLRERLRLQRDELDVAVRSLETQLSRLHYEVDWSDAVAGARQQLRTIGSGFLELQSLVPEGMFYKYNDLWRQCSIHIVQSCLLIRFFETVHAPGPQFSDNLDQSQANDSVETCTAALVTKDEVLEMLDGEKAPTQPALRLDLEEYLLGLCGGIQELARLAANRVVLGDYATPRKLAFFCNQVYAGFRLLNFRNDSLRRSYDALKYAIQRLDSILYDLRIRKLS”, with “soluble”; and “MGSDKIHHHHHHMKDVSIVLSGEAGQGIQTVENVLTRVLKDSGFHVFATKEYMSRVRGGNNTTEIRVSSRRVRSFVDRIDVLIPLGKGATERLKNRITEKTLVIGEEEFIKESPGEKIVIPFLNIAKQIGKSIYANSVAIGFLSGLLGADESALKDQITRQFSSKGEDIVNDNIRAALEGYKKGQELSQKIEFDVEKDPSIKNEVLLNGAEAVGLGAIAGGCNFVSSYPMSPSTSVLVFLAQHKNDFGIVVEQAEDEIAAMNMIIGAWYAGARGLVTTSGGGFALMEEALSLAGMIESPAVIHLAQRPGPATGLPTRTEQGDLNLALYAGHGDFPRVIYAPGNVEEAFYLTQKAFNVADKYQVPVFVLTDQYLVDSYYNLPGFDLNELKVEKHFIKTTRDYIRYAITEDGISPRGIPGYGEGLVRVDSDEHDEFGHITEDFNTRVRMVNKRLRKGETLKKEIVKPKLIGDENYRVLLVAWGSTLEPIKEAIEGLDGVALLHFSQVWPIDESVATYFEKAEKVVAVEGNATGQFANLIRQVTGFHIKDRILKYNGLQFSVEELKEKIAEVL”, with “not soluble”.
“SMRPPIVIHSSGKKYGFSLRAIRVYMGDSDVYTVHHVVWSVEDGSPAQEAGLRAGDLITHINGESVLGLVHMDVVELLLKSGNKISLRTTALENTETSV”: the “soluble on expression in E. coli” value was “soluble”.
Turning to “MSLDDYGIPQVAEINEQISVVWKDYGISPAPEAQDFEWVRRVYLDIIGRVPSVAELEEFQRDRGKDRKKNLVEKLLNDSAFTEEYARNWTTIWTNVLIGRNGGLDNNSQVSREGMQKYLRDSFARNKPYDQLVREVITSEGANAPGMPNFNGAVNFYMDKLAEDGVQATAKTAQIFLGVQVQCTQCHNHPFNSWKQDKFWELNAFFRQTRAQRDRGMEANEGHHHHHH”, the “soluble on expression in E. coli” value is “not soluble”.
Then “MSLYLMPKQDEIALLKQEEETVKATLRIKANKVAVLPQIQAQLDELKERYDFLLRQLPVQKELASMLASVNQLGLDSSLTFTRIDWGERESQEFLYRLPLNIELTGSYHDIGDFSQAIAKLPRIINFDDVDWQRVSQESSTLHFRVRAYTYQFKQEVDDEKEGHHHHHH”, with “not soluble”; and “MMSSQAWTDVENDLIVADYFAMLAEDVAGHPYNKAEHRRQLLPRLNDRSDGSVEFKHQNISAVLKGLGEVWITGYKPAFNFQTSLVDAVARWLVINPGWTHRTLSSRPVDGMAEAAQLWVGPAPTLTNQPSPDELEQMLHIAKKFDVAARDGRNRALGKAGEERVLKHERNTLTAAGREDLAQQIRWVSEEEGDGAGYDIASFDADGRQRLIEVKTTNGWERTPFHISRNELAVADERREEWCLFRLWNFARTPKAFELRPPLDAYVSLTATSFQASIHLEHHHHHH”, with “not soluble”; and “MFGKYKVSVIIPAYNEEKRIGNVLARIPDFVDEVIVIDDGSSDATYEVAKRYTDKAIRLNKNMGKGAALREGLRHASGDIIVFMDADGQHNPKEIPKLLEPIIKGKADFVIGKRIIKTGKRPLPRKLSNFITTTLIRLKTKQRIEDSQSGFRAIRREFVPEITSDRYEVETEVLIKAVKKGARITEVPVSTRYDLKTGKFRVEDIIRFLIALIKSLEHHHHHH”, with “not soluble”.
As for “MFDPREKIALFIDGANLYAASKSLGFDIDYRKLLKAFQKRGYLLRAYYYTALIEDQEYSSIRPLIDWLDYNGYKVVTKPAKEFTDSLGRRKIKGNMDIELAIDAMEQSESVDHLVIFSGDGDFTTLVEALQRKGRKVSVVSTMSTQPPMIADDLRRQADHFIDLATLRGEIGREPSERVQRPVEPVADDVEL”, the entry is “not soluble”; as for “MAHHHHHHMENKENLRNQQEFNQLCRILRLVEGDPGQVVKEPPNLGILIEVLQKMVKATFVKESSYQEAVDAREKWKSTDSTVETKNIMDKQRADDLVRYKITHEKLKKLLAKAKMLVSRIKEERYLAYVSRNAALEKMAKVVYGSSAEKMFRNETEFEKFLANSQGTIVGKTAKETCGMSNDKMKNVSFAGYSLVGDFFCLCVGENNNATLCDKSFSGPREEHKWTKVMFEDKLVDFAAGWFKIRGLCYVNATSGIKDVVTPENISTEIVAFNKMLGRQRDDVQIYRREAESYRQYILGRVEQVGFTDSAICTGEHQHMCVNYAQCLVSNKGIPWQLKLMEAEEDLEDVEKHNMEVHVLIGRLDKLIEKIKKAAEQLSQEMEGIDVAVEKVQLLEEEIEENETTGKSEATAGEFNDNAQPEEGSLDKCEYWGMFSILFGVVAFSLV”, “not soluble”; as for “MSLAPLVAMVGGGQLARMTHQAAIALGQNLRVLVTSADDPAAQVTPNVVIGSHTDLAALRRVAAGADVLTFDHEHVPNELLEKLVADGVNVAPSPQALVHAQDKLVMRQRLAAAGVAVPRYAGIKDPDEIDVFAARVDAPIVVKAVRGGYDGRGVRMARDVADARDFARECLADGVAVLVEERVDLRRELSALVARSPFGQGAAWPVVQTVQRDGTCVLVIAPAPALPDDLATAAQRLALQLADELGVVGVLAVELFETTDGALLVNELAMRPHNSGHWTIDGARTSQFEQHLRAVLDYPLGDSDAVVPVTVMANVLGAAQPPAMSVDERLHHLFARMPDARVHLYGKAERPGRKVGHINFLGSDVAQLCERAELAAHWLSHGRWTDGWDPHRASDDAVGVPPACGGRSDEEERREGHHHHHH”, “soluble”.
Then “MGSDKIHHHHHHMVTIQNDRFTATINEVGAELTHLVDQASHRDLIWNNDLWPKHAPVLFPAIGRSNEDSYLIDGQRYEMPQHGFVSGETFMIVDQTPTAVTLSLTANAATRVYYPFYFELQVTFTLVATGLNLTFSVQNHGQQDLSYSLGSHPAFNVPFEAGEAFTDYELVLDPAPTDLQQFEIVKTPNPYRSGKELPVTTDKGVIKLNYPMFDAGLIILKAPNLAHLTLQSTKSKHSISLNLDDFDYVTLWTKEGAQAPFLCLEPFNGLPDVAGDLRELATKEGNHHVAVGQSETMAYTITVD”, with “not soluble”.
Take “MEKNKSSSPDFSVRDFFKRFPDDEACLEHIFNVRFGARHVCRACGVESTFHRMSDRRAFACAACGDHVYPTAGTIFQDTRTPLQVWFYAIYLFVTTRHGVSGKELQRQLGVTYKTAWRIGHKIREQMDKHDLKAMLQGHVEIDEAYIGGKRPGKRGRGAAGKTIVMGFKQRGGRLVTEIVPDVKLKTLRAETLKTVDAGATVSTDELYSYSLLKGEGYTHVAVKHGAKQWTIYDAETDTMHHTNHVESFWRHFKHSIRGTHVSISQRHMRKYLDEFTFRANHRGEVNLMFDRLVAAFLEHHHHHH”: the “soluble on expression in E. coli” value is recorded as “soluble”.
As for “SLAPTTEIEPIEAQSLKKLSLKSLKRSLELFSPVHGQFPPPDPEAKQIRLSHKMKVAFGGVEPVVSQPPRQPDRINEQPGPSNALSLAAPEGSKSTQKGATESAIVVGPTLLRPILPKGLNYTGSSGKSTTIIPANVSSYQRNLSTAALMERIPSRWPRPEWHAPWKNYRVIQGHLGWVRSVAFDPSNEWFCTGSADRTIKIWDVATGVLKLTLTGHIEQVRGLAVSNRHTYMFSAGDDKQVKCWDLEQNKVIRSYHGHLSGVYCLALHPTLDVLLTGGRDSVCRVWDIRTKMQIFALSGHDNTVCSVFTRPTDPQVVTGSHDTTIKFWDLRYGKTMSTLTHHKKSVRAMTLHPKENAFASASADNTKKFSLPKGEFCHNMLSQQKTIINAMAVNEDGVMVTGGDNGSIWFWDWKSGHSFQQSETIVQPGSLESEAGIYAACYDNTGSRLVTCEADKTIKMWKEDENATPETHPINFKPPKEIRRF”, the entry is “soluble”.
Then “MSHQDDYLSVEELIEIQKEETRDIIQALLEDGSDPDALYEIEHHLFAEDFDKLEKAAVEAFKMGFEVLEAEETEDEDGNKLLCFDATMQSALDAKLIDEQVEKLVNLAEKFDIIYDGWGTYYEGLEHHHHHH”, with “soluble”; and “MKYQKLENQEANWKWIYLIRKHREGENITRYEERSLQEAKAQELLESQNYPEKIEEWIKNHLSPALPIKLDQAIRARRKRFFNGEKQHTKKKSIDLEYAVWLRLSKYSRKMKMTLSETITYMIDERESKAQFENQMAAMKTSLKNLLK”, with “not soluble”; and “MSETRRNQSSDEQIEKSEIQHQRVVIENSHGEKLVGVLHDTGSTETVVICHGFRSSKNRIPMLTIASFFERAMISSFRFDFAGNGESQGSFQYGNYRREVEDLRSVLQHLRGVNRVISAIIGHSKGGNVVLLYAAKYNDVQTVVNISGRFFLDRGIEFRLGKDYFKRIKDNGFIDVSNRKGKFEYRVTEESLMDRLTTNAHEACLSIRENCRVLTVHGSNDRIVHVTEASEFAKQIKNHKLYVIEGADHEFTSHQHQLASIVLSFFKLDPKKDDESGDISTSNQDSMRSVVPITSRI”, with “soluble”.
